In patent publication US10450368:

Columns and labels:
[1] = biological target: BG505 SOSIP.664 gp140 trimer (HIV-1); test: negative stain EM
[2] = biological target: CH505.TF mutant gp120 M8 (HIV-1); test: direct-binding ELISA (OD450), panel 'CH505.TF gp120 M8'
RSC3 delta371I = test: ELISA
[3] = biological target: HIV-1 Env resurface core protein 3 (RSC3); test: direct-binding ELISA (OD450), panel 'RSC3'
CH505.TF gp120 delta371I = test: direct-binding ELISA (OD450), panel 'CH505.TF gp120 delta371I'
CH0505_CON D7gp120/293i = test: ELISA
[4] = biological target: CH505.TF mutant gp120 M8 (HIV-1); test: ELISA
CH505.M7D8gp120/293F = test: ELISA
CH505.M9D8gp120/293F = test: ELISA
[5] = biological target: CH505.TF mutant gp120 M6 (HIV-1); test: ELISA
CH505.M19D8gp120 = test: ELISA
CH505w030.20D8gp120/293F = test: ELISA
CH505w020.14D8gp120 = test: ELISA
CH505.M10D8gp120 = test: ELISA
[6] = biological target: CH505.TF mutant gp120 M20 (HIV-1); test: ELISA
CH505.M21D8gp120/293F = test: ELISA
CH505w136.B18D8gp120 = test: ELISA
CH505.w30.12D8gp120 = test: ELISA
CH505.M5D8gp120293F = test: ELISA
CH505.M11D8gp120/293F = test: ELISA
Centromere B [7] = biological target: Centromere B (UniProt P07199); test: AtheNA, Ab 50 ug/ml
Chain of Centromere B (P07199 whole entry): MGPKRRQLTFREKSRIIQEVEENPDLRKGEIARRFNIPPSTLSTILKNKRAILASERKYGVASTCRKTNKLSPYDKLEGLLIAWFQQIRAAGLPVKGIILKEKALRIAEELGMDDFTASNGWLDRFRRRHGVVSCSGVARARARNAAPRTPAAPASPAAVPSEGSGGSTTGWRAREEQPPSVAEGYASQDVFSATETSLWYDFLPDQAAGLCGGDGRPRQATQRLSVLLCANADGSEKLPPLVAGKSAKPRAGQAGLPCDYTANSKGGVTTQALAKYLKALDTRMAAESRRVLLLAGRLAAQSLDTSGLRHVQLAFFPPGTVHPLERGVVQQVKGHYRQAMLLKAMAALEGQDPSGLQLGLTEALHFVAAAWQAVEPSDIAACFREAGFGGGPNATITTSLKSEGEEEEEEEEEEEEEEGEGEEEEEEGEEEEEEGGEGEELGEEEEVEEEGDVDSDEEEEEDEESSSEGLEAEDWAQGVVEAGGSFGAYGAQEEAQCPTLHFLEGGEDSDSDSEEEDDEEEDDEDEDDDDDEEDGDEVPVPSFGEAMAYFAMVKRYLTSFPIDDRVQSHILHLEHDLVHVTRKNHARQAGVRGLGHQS

Sm (Smith antigen) [8] = test: AtheNA, Ab 50 ug/ml
Histones [9] = test: AtheNA, Ab 50 ug/ml
RNP (ribonucleoprotein) [10] = test: AtheNA, Ab 50 ug/ml
SSA [11] = test: AtheNA, Ab 12.5 ug/ml
Centromere B [12] = biological target: Centromere B (UniProt P07199); test: AtheNA, Ab 12.5 ug/ml
Jo-1 [13] = biological target: Jo-1 (UniProt P12081); test: AtheNA, Ab 12.5 ug/ml
Chain of Jo-1 (P12081 whole entry): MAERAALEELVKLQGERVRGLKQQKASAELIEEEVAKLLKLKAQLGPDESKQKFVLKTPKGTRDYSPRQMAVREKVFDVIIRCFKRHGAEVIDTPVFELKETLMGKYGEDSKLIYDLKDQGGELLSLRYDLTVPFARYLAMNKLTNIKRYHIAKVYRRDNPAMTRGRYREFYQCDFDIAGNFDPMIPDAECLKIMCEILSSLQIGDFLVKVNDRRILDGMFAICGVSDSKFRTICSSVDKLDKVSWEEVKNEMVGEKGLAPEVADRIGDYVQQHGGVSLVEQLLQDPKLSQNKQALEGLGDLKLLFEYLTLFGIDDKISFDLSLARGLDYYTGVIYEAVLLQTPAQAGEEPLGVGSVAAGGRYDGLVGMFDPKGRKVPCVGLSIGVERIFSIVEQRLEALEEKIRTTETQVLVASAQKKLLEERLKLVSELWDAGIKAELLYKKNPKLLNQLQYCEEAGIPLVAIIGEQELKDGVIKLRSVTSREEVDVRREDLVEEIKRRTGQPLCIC

Sm (Smith antigen) [14] = test: AtheNA, Ab 12.5 ug/ml
Histones [15] = test: AtheNA, Ab 12.5 ug/ml
SSB [16] = biological target: SSB (UniProt P05455); test: AtheNA, Ab 12.5 ug/ml
Chain of SSB (P05455 whole entry): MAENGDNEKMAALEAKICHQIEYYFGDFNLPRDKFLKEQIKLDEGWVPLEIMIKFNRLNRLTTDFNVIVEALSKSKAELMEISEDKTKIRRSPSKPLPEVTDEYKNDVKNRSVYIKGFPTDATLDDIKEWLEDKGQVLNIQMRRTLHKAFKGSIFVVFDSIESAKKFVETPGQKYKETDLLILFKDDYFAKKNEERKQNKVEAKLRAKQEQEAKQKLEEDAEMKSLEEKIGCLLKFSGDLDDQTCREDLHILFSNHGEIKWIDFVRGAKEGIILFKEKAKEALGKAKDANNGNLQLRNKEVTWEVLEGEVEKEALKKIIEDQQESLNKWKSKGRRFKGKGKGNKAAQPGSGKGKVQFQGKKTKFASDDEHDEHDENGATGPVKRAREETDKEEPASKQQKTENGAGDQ

RNP (ribonucleoprotein) [17] = test: AtheNA, Ab 12.5 ug/ml
Scl-70 [18] = biological target: Scl-70 (UniProt P11387); test: AtheNA, Ab 12.5 ug/ml
Chain of Scl-70 (P11387 whole entry): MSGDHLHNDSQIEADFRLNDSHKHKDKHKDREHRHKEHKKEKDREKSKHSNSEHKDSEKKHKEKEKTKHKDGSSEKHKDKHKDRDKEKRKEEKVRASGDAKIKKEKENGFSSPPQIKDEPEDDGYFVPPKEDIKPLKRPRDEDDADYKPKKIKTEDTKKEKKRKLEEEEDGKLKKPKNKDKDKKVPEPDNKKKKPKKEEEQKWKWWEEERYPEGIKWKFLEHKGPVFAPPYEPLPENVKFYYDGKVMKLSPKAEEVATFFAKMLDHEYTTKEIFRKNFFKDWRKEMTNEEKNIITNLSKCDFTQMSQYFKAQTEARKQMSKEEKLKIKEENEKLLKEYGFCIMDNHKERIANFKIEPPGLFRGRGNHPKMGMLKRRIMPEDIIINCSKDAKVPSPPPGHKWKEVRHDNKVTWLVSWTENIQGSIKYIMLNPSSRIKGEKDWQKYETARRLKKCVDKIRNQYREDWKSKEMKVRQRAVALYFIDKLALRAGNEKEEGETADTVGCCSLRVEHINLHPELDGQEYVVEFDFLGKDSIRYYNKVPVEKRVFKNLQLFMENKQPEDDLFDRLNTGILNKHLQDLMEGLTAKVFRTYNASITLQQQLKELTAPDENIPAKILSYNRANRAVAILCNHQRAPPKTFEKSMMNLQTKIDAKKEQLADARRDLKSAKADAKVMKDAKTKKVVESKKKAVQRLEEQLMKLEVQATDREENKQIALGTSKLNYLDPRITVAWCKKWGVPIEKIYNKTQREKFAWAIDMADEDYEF

SSA [19] = test: AtheNA, Ab 25 ug/ml
Centromere B [20] = biological target: Centromere B (UniProt P07199); test: AtheNA, Ab 25 ug/ml
Jo-1 [21] = biological target: Jo-1 (UniProt P12081); test: AtheNA, Ab 25 ug/ml
Sm (Smith antigen) [22] = test: AtheNA, Ab 25 ug/ml
Histones [23] = test: AtheNA, Ab 25 ug/ml
SSB [24] = biological target: SSB (UniProt P05455); test: AtheNA, Ab 25 ug/ml
RNP (ribonucleoprotein) [25] = test: AtheNA, Ab 25 ug/ml
Scl-70 [26] = biological target: Scl-70 (UniProt P11387); test: AtheNA, Ab 25 ug/ml
SSA [27] = test: AtheNA, Ab 6.25 ug/ml
Centromere B [28] = biological target: Centromere B (UniProt P07199); test: AtheNA, Ab 6.25 ug/ml
Jo-1 [29] = biological target: Jo-1 (UniProt P12081); test: AtheNA, Ab 6.25 ug/ml
Sm (Smith antigen) [30] = test: AtheNA, Ab 6.25 ug/ml
Histones [31] = test: AtheNA, Ab 6.25 ug/ml
SSB [32] = biological target: SSB (UniProt P05455); test: AtheNA, Ab 6.25 ug/ml
RNP (ribonucleoprotein) [33] = test: AtheNA, Ab 6.25 ug/ml
Scl-70 [34] = biological target: Scl-70 (UniProt P11387); test: AtheNA, Ab 6.25 ug/ml

Substance: CH103 Fab
- stoichiometry (Fabs per trimer) (Fabs per trimer) [1]: 3

Substance: 2G12 (antibody)
- EC50 (read off the curve) [2]: 0.2 µg/mL
- EC50 (read off the curve) (RSC3 delta371I): 0.01 µg/mL
- EC50 (read off the curve) [3]: 0.01 µg/mL
- EC50 (read off the curve) (CH505.TF gp120 delta371I): 0.2 µg/mL

Substance: CH235 IA2 (antibody)
- LogAUC (CH0505_CON D7gp120/293i): 4.77
- LogAUC [4]: 0
- LogAUC (CH505.M7D8gp120/293F): 0
- LogAUC (CH505.M9D8gp120/293F): 0
- LogAUC [5]: 1.22
- LogAUC (CH505.M19D8gp120): 0
- LogAUC (CH505w030.20D8gp120/293F): 0.53
- LogAUC (CH505w020.14D8gp120): 1.22
- LogAUC (CH505.M10D8gp120): 0.43
- LogAUC [6]: 0
- LogAUC (CH505.M21D8gp120/293F): 0
- LogAUC (CH505w136.B18D8gp120): 0
- LogAUC (CH505.w30.12D8gp120): 0
- LogAUC (CH505.M5D8gp120293F): 6.95
- LogAUC (CH505.M11D8gp120/293F): 0
- AtheNA signal (relative luminescence units) (Centromere B [7]): 256
- AtheNA signal (relative luminescence units) (Sm (Smith antigen) [8]): 259
- AtheNA signal (relative luminescence units) (Histones [9]): 371
- AtheNA signal (relative luminescence units) (RNP (ribonucleoprotein) [10]): 101
- AtheNA signal (relative luminescence units) (SSA [11]): 34
- AtheNA signal (relative luminescence units) (Centromere B [12]): 225
- AtheNA signal (relative luminescence units) (Jo-1 [13]): 20
- AtheNA signal (relative luminescence units) (Sm (Smith antigen) [14]): 279
- AtheNA signal (relative luminescence units) (Histones [15]): 287
- AtheNA signal (relative luminescence units) (SSB [16]): 31
- AtheNA signal (relative luminescence units) (RNP (ribonucleoprotein) [17]): 85
- AtheNA signal (relative luminescence units) (Scl-70 [18]): 44
- AtheNA signal (relative luminescence units) (SSA [19]): 43
- AtheNA signal (relative luminescence units) (Centromere B [20]): 228
- AtheNA signal (relative luminescence units) (Jo-1 [21]): 26
- AtheNA signal (relative luminescence units) (Sm (Smith antigen) [22]): 256
- AtheNA signal (relative luminescence units) (Histones [23]): 302
- AtheNA signal (relative luminescence units) (SSB [24]): 36
- AtheNA signal (relative luminescence units) (RNP (ribonucleoprotein) [25]): 93
- AtheNA signal (relative luminescence units) (Scl-70 [26]): 49
- AtheNA signal (relative luminescence units) (SSA [27]): 18
- AtheNA signal (relative luminescence units) (Centromere B [28]): 183
- AtheNA signal (relative luminescence units) (Jo-1 [29]): 12
- AtheNA signal (relative luminescence units) (Sm (Smith antigen) [30]): 204
- AtheNA signal (relative luminescence units) (Histones [31]): 207
- AtheNA signal (relative luminescence units) (SSB [32]): 15
- AtheNA signal (relative luminescence units) (RNP (ribonucleoprotein) [33]): 66
- AtheNA signal (relative luminescence units) (Scl-70 [34]): 28
